Data as given in patent US20220112276A1 (Janssen / Centocor, published 2022).
Positions count from the first letter of the chain named. Blank lines part the entries; values can stand above or below the binder they belong to.

Legend:
[1] = target: T1, human pIgR extracellular domain (ECD) (human, UniProt P01833 19-638); assay: SPR, VHH captured by anti-Fc, ECD analyte
T1 construct: Bought from R&D Systems (Cat 2717-PG-050); also called hpIgR ECD
Outline: (§1)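 Single-cycle kinetics: ECD analyte from 30 nM, 3-fold series, low to high, with 30 min off-rate monitoring, over VHH captured at 0.5 ug/ml (~200-300 RU). HBSP plus 100 ug/ml BSA at 30 μL/min. Reference cell and buffer blank subtracted; global 1:1 Langmuir fit gave kon, koff, KD.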

[2] = target: T2, mouse pIgR extracellular domain (ECD) (mouse, UniProt O70570 19-645); assay: SPR, VHH captured by anti-Fc, ECD analyte
T2 construct: Bought from R&D Systems (Cat 2800-PG-050); also called mpIgR ECD
T2 sequence: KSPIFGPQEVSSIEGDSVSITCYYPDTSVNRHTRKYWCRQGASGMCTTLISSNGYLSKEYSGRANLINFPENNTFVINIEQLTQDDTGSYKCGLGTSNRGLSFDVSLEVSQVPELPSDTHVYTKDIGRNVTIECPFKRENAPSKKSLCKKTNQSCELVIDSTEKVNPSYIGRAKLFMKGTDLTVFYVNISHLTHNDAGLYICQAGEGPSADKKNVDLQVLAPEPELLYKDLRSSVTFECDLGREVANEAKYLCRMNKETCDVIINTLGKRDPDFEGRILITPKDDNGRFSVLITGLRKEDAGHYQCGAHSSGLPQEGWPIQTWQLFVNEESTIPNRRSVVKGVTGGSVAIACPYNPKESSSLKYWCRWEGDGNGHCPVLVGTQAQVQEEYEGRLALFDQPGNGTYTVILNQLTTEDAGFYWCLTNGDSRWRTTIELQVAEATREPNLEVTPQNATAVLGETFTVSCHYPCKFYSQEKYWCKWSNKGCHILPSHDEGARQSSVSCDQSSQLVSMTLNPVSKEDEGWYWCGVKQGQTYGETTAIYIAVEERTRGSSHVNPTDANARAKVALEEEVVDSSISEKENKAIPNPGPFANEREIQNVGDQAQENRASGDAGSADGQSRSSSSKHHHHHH
Outline: as §1

[3] = target: T3, cynomolgus monkey pIgR extracellular domain (cynomolgus monkey, UniProt A0A2K5WMU9 19-638); assay: SPR, VHH captured by anti-Fc, ECD analyte
T3 construct: extracellular domain
T3 sequence (A0A2K5WMU9 entry or part of it): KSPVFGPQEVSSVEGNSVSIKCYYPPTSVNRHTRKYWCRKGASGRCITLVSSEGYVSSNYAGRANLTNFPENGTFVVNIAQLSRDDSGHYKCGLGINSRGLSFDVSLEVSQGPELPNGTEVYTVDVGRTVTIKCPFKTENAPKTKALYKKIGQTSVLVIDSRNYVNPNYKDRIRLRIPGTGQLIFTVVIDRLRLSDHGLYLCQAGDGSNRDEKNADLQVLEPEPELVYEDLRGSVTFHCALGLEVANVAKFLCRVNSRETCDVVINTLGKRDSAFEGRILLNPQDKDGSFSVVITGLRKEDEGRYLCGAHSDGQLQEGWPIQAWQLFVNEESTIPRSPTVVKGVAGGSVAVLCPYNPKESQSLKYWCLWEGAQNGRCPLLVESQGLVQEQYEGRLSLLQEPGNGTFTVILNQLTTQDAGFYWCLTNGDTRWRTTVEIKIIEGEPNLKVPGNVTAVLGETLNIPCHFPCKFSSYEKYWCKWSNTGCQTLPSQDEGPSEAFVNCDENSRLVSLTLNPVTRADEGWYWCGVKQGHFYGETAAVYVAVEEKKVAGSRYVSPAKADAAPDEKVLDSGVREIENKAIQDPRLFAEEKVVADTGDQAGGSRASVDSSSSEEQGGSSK
Outline: as §1

[4] = target: T4, rat pIgR extracellular domain (rat, UniProt P15083 19-643); assay: SPR, VHH captured by anti-Fc, ECD analyte
T4 construct: extracellular domain
T4 sequence (looked up): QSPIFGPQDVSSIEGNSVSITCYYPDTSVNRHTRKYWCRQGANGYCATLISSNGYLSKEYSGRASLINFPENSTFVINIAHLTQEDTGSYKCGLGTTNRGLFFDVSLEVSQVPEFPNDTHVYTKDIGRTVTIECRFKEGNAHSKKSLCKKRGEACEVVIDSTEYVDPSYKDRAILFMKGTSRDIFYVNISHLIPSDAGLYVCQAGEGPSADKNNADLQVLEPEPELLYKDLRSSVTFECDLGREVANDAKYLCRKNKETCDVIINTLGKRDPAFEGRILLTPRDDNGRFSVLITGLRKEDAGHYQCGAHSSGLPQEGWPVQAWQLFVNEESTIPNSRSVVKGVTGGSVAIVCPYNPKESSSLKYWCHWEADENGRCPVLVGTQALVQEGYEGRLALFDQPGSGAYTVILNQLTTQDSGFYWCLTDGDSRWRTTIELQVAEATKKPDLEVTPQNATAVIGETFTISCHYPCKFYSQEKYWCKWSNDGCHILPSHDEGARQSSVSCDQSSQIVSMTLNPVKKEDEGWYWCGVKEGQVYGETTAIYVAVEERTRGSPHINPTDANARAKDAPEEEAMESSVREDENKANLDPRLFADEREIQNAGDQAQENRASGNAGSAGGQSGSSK
Outline: as §1

[5] = target: T1, human pIgR extracellular domain (ECD); assay: SPR

T1 sequence (P01833 other isoform, or with tags, fused parts or gaps): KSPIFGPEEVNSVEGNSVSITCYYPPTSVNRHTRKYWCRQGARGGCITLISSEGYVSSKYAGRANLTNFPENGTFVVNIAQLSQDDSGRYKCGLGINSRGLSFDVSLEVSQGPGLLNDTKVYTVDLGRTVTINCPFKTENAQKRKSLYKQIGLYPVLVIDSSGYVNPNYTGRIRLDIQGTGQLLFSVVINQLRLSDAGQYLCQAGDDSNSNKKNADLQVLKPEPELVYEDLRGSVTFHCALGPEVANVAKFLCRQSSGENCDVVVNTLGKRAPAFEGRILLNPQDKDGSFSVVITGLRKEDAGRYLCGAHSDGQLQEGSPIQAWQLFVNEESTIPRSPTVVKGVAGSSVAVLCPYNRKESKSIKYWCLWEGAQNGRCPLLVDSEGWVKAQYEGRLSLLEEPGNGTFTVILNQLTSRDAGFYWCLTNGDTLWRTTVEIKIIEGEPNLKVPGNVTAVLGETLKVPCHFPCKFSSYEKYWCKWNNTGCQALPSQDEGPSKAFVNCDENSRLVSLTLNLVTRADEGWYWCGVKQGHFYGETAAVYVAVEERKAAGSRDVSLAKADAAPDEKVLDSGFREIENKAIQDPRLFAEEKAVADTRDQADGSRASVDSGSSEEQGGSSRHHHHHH

- Kd [1]: 34.2 nM
- Kd [2]: 17.3 nM
- Kd [3]: 36.2 nM
- Kd [4]: 16.1 nM
B1: 01E05R2 VHH Mono-Fc (Fc fusion)
chain: QVQLVESGGGLVQAGGSLRLSCAASGRAFSSGRMGWFRQAPGKEREFVAAISWSGHTTYKYYADSVKGRFTISRENAKNTVSLQMNSLKPEDTAVYYCAARQSLVAGGDPRGQSEYDYWGQGTLVTVSSSPAPELLGGPSVFLFPPKPKDTLMISRTPEVTCVVVDVSHEDPEVKFNWYVDGVEVHNAKTKPREEQYNSTYRVVSVLTVLHQDWLNGKEYKCKVSNKALPAPIEKTISKAKGQPREPQVYTKPPSREEMTKNQVSLSCLVKGFYPSDIAVEWESNGQPENNYKTTVPVLDSDGSFRLASYLTVDKSRWQQGNVFSCSVMHEALHNHYTQKSLSLSPGK

- binding result [5]: no binding (tested: 30 nM)
- Kd [2]: 46.6 nM
- Kd [4]: 25.4 nM
B2: 02H04R3 VHH Mono-Fc (Fc fusion)
chain: EVQLVESGGGLVQPGGRLRLSCAASGSIFSIRDMGWYRQAPGKQRELVAIFARGGSTHYADSVKGRFTISRDNAKNTVYLQMNSLEPEDTAAYYCNAEVATMIQPGFRDYWGQGTQVTVSSSPAPELLGGPSVFLFPPKPKDTLMISRTPEVTCVVVDVSHEDPEVKFNWYVDGVEVHNAKTKPREEQYNSTYRVVSVLTVLHQDWLNGKEYKCKVSNKALPAPIEKTISKAKGQPREPQVYTKPPSREEMTKNQVSLSCLVKGFYPSDIAVEWESNGQPENNYKTTVPVLDSDGSFRLASYLTVDKSRWQQGNVFSCSVMHEALHNHYTQKSLSLSPGK

- binding result [5]: no binding (tested: 30 nM)
- Kd [2]: 2.76 nM
- Kd [4]: 1.32 nM
B3: 02B03R3 VHH Mono-Fc (Fc fusion)
chain: B2 chain with P14S, R17Q, F29A, G35A, S56T, I103F, Q113R, Q116L

- binding result [5]: no binding (tested: 30 nM)
- Kd [2]: 6.06 nM
- Kd [4]: 2.91 nM
B4: 01A03R3L VHH Mono-Fc (Fc fusion)
chain: B2 chain with R17Q, F29A, I31V, G35A, E46G, S56T, I103F, Q113R, Q116L

- binding result [5]: no binding (tested: 30 nM)
- Kd [2]: 33.1 nM
- Kd [4]: 16 nM
B5: 01C03R3L VHH Mono-Fc (Fc fusion)
chain: B2 chain with E1Q, Q116L

- binding result [5]: no binding (tested: 30 nM)
- Kd [2]: 3.29 nM
B6: 01A04R3LS VHH Mono-Fc (Fc fusion)
chain: QVQLVESGGGSVQPGGSLRLSCAASGIDVSISTIMWYRQPPGRQRELVADVIPSGRSTTYTESVKGRFTVTRDNAKNTVYLQMSGLKPEDTAVYYCNAFVRRENYWGQGTQVTVSSSPAPELLGGPSVFLFPPKPKDTLMISRTPEVTCVVVDVSHEDPEVKFNWYVDGVEVHNAKTKPREEQYNSTYRVVSVLTVLHQDWLNGKEYKCKVSNKALPAPIEKTISKAKGQPREPQVYTKPPSREEMTKNQVSLSCLVKGFYPSDIAVEWESNGQPENNYKTTVPVLDSDGSFRLASYLTVDKSRWQQGNVFSCSVMHEALHNHYTQKSLSLSPGK

- Kd [1]: 17.9 nM
- Kd [2]: 7.18 nM
- Kd [3]: 4.97 nM
- Kd [4]: 2.78 nM
B7: 01A02R3 VHH Mono-Fc (Fc fusion)
chain: EVQLVESGGGLVQSGGSLRLSCAASGRTFDQFTVGWFRQAPGKEREFVTAIRWSGSTTYRYYADSVKGRFTISRDNARNTVDLQMNSLKPEDSAVYYCAGQMSQWSDPRGDDYDSWGQGTLVTVSSSPAPELLGGPSVFLFPPKPKDTLMISRTPEVTCVVVDVSHEDPEVKFNWYVDGVEVHNAKTKPREEQYNSTYRVVSVLTVLHQDWLNGKEYKCKVSNKALPAPIEKTISKAKGQPREPQVYTKPPSREEMTKNQVSLSCLVKGFYPSDIAVEWESNGQPENNYKTTVPVLDSDGSFRLASYLTVDKSRWQQGNVFSCSVMHEALHNHYTQKSLSLSPGK

- binding result [5]: no binding (tested: 30 nM)
- Kd [2]: 19.8 nM
B8: 01G05R2LS VHH Mono-Fc (Fc fusion)
chain: QVQLVESGGGLVQAGDSLALSCAGSGDTFSNYAMGWFRQAPGKEREFVADISWYSANIGYADSVKGRFTISRDNAKNMVTLRMNSLKPEDTAVYYCAADRNHWPVKGDYWGQGTQVTVSSSPAPELLGGPSVFLFPPKPKDTLMISRTPEVTCVVVDVSHEDPEVKFNWYVDGVEVHNAKTKPREEQYNSTYRVVSVLTVLHQDWLNGKEYKCKVSNKALPAPIEKTISKAKGQPREPQVYTKPPSREEMTKNQVSLSCLVKGFYPSDIAVEWESNGQPENNYKTTVPVLDSDGSFRLASYLTVDKSRWQQGNVFSCSVMHEALHNHYTQKSLSLSPGK

- Kd [1]: 0.391 nM
- Kd [2]: 126 nM
- Kd [3]: 37.8 nM
- Kd [4]: 126 nM
B9: 03D02R3 VHH Mono-Fc (Fc fusion)
chain: EVQLVESGGGLAQAGGSLRLSCTASGTISKIDVMAWYRQTPGNERELVARIFSNDVTHYVDSAKGRFTLSRAQDKNTVDLQMNSLEPDDAAVYYCNAQIWSDMRGRMDTYWGQGTLVTVSSSPAPELLGGPSVFLFPPKPKDTLMISRTPEVTCVVVDVSHEDPEVKFNWYVDGVEVHNAKTKPREEQYNSTYRVVSVLTVLHQDWLNGKEYKCKVSNKALPAPIEKTISKAKGQPREPQVYTKPPSREEMTKNQVSLSCLVKGFYPSDIAVEWESNGQPENNYKTTVPVLDSDGSFRLASYLTVDKSRWQQGNVFSCSVMHEALHNHYTQKSLSLSPGK

- binding result [5]: no binding (tested: 30 nM)
- Kd [2]: 3.98 nM
- Kd [3]: 2.72 nM
B10: 01F05R2LS VHH Mono-Fc (Fc fusion)
chain: QVQLVESGGGLVQAGGSLRLSCAASGSIFAINGMGWYRQAPGKQRELVAVITRGGSTNYADSVKGRFTISRDNAKNTVSLQMNSLKPEDTAVYYCAATGVLAGWAAGDGMDYWGKGTLVTVSSSPAPELLGGPSVFLFPPKPKDTLMISRTPEVTCVVVDVSHEDPEVKFNWYVDGVEVHNAKTKPREEQYNSTYRVVSVLTVLHQDWLNGKEYKCKVSNKALPAPIEKTISKAKGQPREPQVYTKPPSREEMTKNQVSLSCLVKGFYPSDIAVEWESNGQPENNYKTTVPVLDSDGSFRLASYLTVDKSRWQQGNVFSCSVMHEALHNHYTQKSLSLSPGK

- Kd [1]: 11.4 nM
- Kd [2]: 4.46 nM
- Kd [3]: 2.11 nM
- Kd [4]: 2.33 nM
B11: 01B07R2L VHH Mono-Fc (Fc fusion)
chain: EVQLVESGGGLVQAGGSLRLSCAASGRTFSSDAVGWFRQAPGKEREFVAHIHWSGDFTTYYYYGDFVKGRFTISRGTAKNTVYLQMNSLKPEDTAVYYCAAPKGAIGDPRSTREYDYWGQGTLVTVSSSPAPELLGGPSVFLFPPKPKDTLMISRTPEVTCVVVDVSHEDPEVKFNWYVDGVEVHNAKTKPREEQYNSTYRVVSVLTVLHQDWLNGKEYKCKVSNKALPAPIEKTISKAKGQPREPQVYTKPPSREEMTKNQVSLSCLVKGFYPSDIAVEWESNGQPENNYKTTVPVLDSDGSFRLASYLTVDKSRWQQGNVFSCSVMHEALHNHYTQKSLSLSPGK

- binding result [5]: no binding (tested: 30 nM)
- Kd [2]: 6.55 nM
B12: 01C01R2L VHH Mono-Fc (Fc fusion)
chain: QVQLVESGGGLVQAGGSLRLSCAASGRTLRSYIVGWFRQAPGKEREFVAAVTWSDGRRVTADPVKGRFTISRDNAKNTVYLQMDSLKPEDAAVYYCAVSRGGAYEYSRAYEYWGQGTLVTVSSSPAPELLGGPSVFLFPPKPKDTLMISRTPEVTCVVVDVSHEDPEVKFNWYVDGVEVHNAKTKPREEQYNSTYRVVSVLTVLHQDWLNGKEYKCKVSNKALPAPIEKTISKAKGQPREPQVYTKPPSREEMTKNQVSLSCLVKGFYPSDIAVEWESNGQPENNYKTTVPVLDSDGSFRLASYLTVDKSRWQQGNVFSCSVMHEALHNHYTQKSLSLSPGK

- binding result [5]: no binding (tested: 30 nM)
- Kd [2]: 3.67 nM
B13: 01C03R2L VHH Mono-Fc (Fc fusion)
chain: B12 chain with Q1E, R100H, E105V, Y106E, L118Q
